# According to article PMC2572727, “The GET Complex Mediates Insertion of Tail-Anchored Proteins into the ER Membrane” (Cell, 2008):
# T1: purified Get1-PC and Get2-HA reconstituted in proteoliposomes (yeast, UniProt P53192 1-235; P40056 1-285)
# T1 construct: Get1 (Mdm39), yeast; construct details in the Supplemental Data; Get2 (Rmd7, Hur2), yeast; also called +Get1/+Get2; Get1/Get2 complex; source: copurified from yeast, reconstituted into proteoliposomes
# T1 sequence (looked up) 1: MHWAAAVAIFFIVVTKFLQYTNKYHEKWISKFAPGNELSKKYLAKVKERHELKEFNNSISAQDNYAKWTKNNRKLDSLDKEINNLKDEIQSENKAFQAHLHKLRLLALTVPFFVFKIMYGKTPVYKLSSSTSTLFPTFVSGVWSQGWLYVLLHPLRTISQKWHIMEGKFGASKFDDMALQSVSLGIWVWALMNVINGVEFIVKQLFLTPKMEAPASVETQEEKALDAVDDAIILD
# T1 sequence (looked up) 2: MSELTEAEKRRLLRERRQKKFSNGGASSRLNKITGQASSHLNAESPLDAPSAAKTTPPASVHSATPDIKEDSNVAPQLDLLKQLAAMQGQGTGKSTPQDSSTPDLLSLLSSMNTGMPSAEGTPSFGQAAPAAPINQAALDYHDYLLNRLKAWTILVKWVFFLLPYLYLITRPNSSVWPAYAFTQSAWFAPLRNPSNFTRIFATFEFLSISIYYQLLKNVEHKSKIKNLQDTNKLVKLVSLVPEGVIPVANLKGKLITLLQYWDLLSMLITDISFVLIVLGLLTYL
# Target: T1, purified Get1-PC and Get2-HA …
# Experiment: co-sedimentation; recombinant Get3 incubated with proteoliposomes reconstituted with purified Get1-PC and Get2-HA or with Phs1 as control; Optiprep gradient fractions blotted with αGet3 or αPhs1
# Conditions: both partners purified
binder,measurement,value
"recombinant Get3 ATPase (enzyme, yeast, UniProt Q12154 1-354, looked up, Get3 (Arr4), yeast homolog of Asna1/TRC40, soluble cytosolic ATPase; also called Arr4; source: purified from Escherichia coli (Metz et al., 2006)) MDLTVEPNLHSLITSTTHKWIFVGGKGGVGKTTSSCSIAIQMALSQPNKQFLLISTDPAHNLSDAFGEKFGKDARKVTGMNNLSCMEIDPSAALKDMNDMAVSRANNNGSDGQGDDLGSLLQGGALADLTGSIPGIDEALSFMEVMKHIKRQEQGEGETFDTVIFDTAPTGHTLRFLQLPNTLSKLLEKFGEITNKLGPMLNSFMGAGNVDISGKLNELKANVETIRQQFTDPDLTTFVCVCISEFLSLYETERLIQELISYDMDVNSIIVNQLLFAENDQEHNCKRCQARWKMQKKYLDQIDELYEDFHVVKMPLCAGEIRGLNNLTKFSQFLNKEYNPITDGKVIYELEDKE",binding result,binds
